B1: 7B16-H2.001 (CDR H2 swapped mutant of 7-B16) (antibody, V domains shown)
VH: EVQLVESGGGLVQPKGSLKLSCAASGFTFNTYAMNWVRQAPGKGLEWVARIRSKANSYATAYAASVKDRFTISRDDSQSMLYLQMNNLKTEDTAMYYCVRGLLRYRFFDVWGAGTTVTVSS
VL: DIVMTQAEPSVPVTPGESISISCRSSKSLLHSNGNTYLYWFLQRPGQSPQLLIYRMSNLASGVPDRFSGSGSGTAFTLRISRVEAEDVGVYYCMQHLEYPFTFGGGTKLEIKR
notes: also called CDR swapped variant H2
B2: 7B16-H3C1.001 (CDR H3 combo mutant of 7-B16) (antibody, V domains shown)
VH: EVQLVESGGGLVQPKGSLKLSCAASGFTFNTYAMNWVRQAPGKGLEWVARIRSKSNNYATYYADSVKDRFTISRDDSQSMLYLQMNNLKTEDTAMYYCARGLLRARFFDVWGAGTTVTVSS
VL: DIVMTQAEPSVPVTPGESISISCRSSKSLLHSNGNTYLYWFLQRPGQSPQLLIYRMSNLASGVPDRFSGSGSGTAFTLRISRVEAEDVGVYYCMQHLEYPFTFGGGTKLEIKR
B3: 7B16-H3C3.001 (CDR H3 combo mutant of 7-B16) (antibody, V domains shown)
VH: EVQLVESGGGLVQPKGSLKLSCAASGFTFNTYAMNWVRQAPGKGLEWVARIRSKSNNYATYYADSVKDRFTISRDDSQSMLYLQMNNLKTEDTAMYYCVRGLLRARFFDAWGAGTTVTVSS
VL: DIVMTQAEPSVPVTPGESISISCRSSKSLLHSNGNTYLYWFLQRPGQSPQLLIYRMSNLASGVPDRFSGSGSGTAFTLRISRVEAEDVGVYYCMQHLEYPFTFGGGTKLEIKR
B4: 7B16-H3C4.001 (CDR H3 combo mutant of 7-B16) (antibody, V domains shown)
VH: EVQLVESGGGLVQPKGSLKLSCAASGFTFNTYAMNWVRQAPGKGLEWVARIRSKSNNYATYYADSVKDRFTISRDDSQSMLYLQMNNLKTEDTAMYYCARGLLRARFFDAWGAGTTVTVSS
VL: DIVMTQAEPSVPVTPGESISISCRSSKSLLHSNGNTYLYWFLQRPGQSPQLLIYRMSNLASGVPDRFSGSGSGTAFTLRISRVEAEDVGVYYCMQHLEYPFTFGGGTKLEIKR
B5: 7B16-L2.001 (CDR L2 swapped mutant of 7-B16) (antibody, V domains shown)
VH: EVQLVESGGGLVQPKGSLKLSCAASGFTFNTYAMNWVRQAPGKGLEWVARIRSKSNNYATYYADSVKDRFTISRDDSQSMLYLQMNNLKTEDTAMYYCVRGLLRYRFFDVWGAGTTVTVSS
VL: DIVMTQAEPSVPVTPGESISISCRSSKSLLHSNGNTYLYWFLQRPGQSPQLLIYLGSNRASGVPDRFSGSGSGTAFTLRISRVEAEDVGVYYCMQHLEYPFTFGGGTKLEIKR
notes: also called CDR swapped variant L2
B6: 7B16-H3C2.001 (CDR H3 combo mutant of 7-B16) (antibody, V domains shown)
VH: EVQLVESGGGLVQPKGSLKLSCAASGFTFNTYAMNWVRQAPGKGLEWVARIRSKSNNYATYYADSVKDRFTISRDDSQSMLYLQMNNLKTEDTAMYYCARGLLRYRFFDAWGAGTTVTVSS
VL: DIVMTQAEPSVPVTPGESISISCRSSKSLLHSNGNTYLYWFLQRPGQSPQLLIYRMSNLASGVPDRFSGSGSGTAFTLRISRVEAEDVGVYYCMQHLEYPFTFGGGTKLEIKR
B7: 1-K17 (mouse hybridoma antibody) (antibody, mouse IgG1, kappa)
heavy: QVQLQQPGAELVKPGASVKMSCKASGYTFTSYNMHWVKQTPGQGLEWIGAIYPGNGDTSYNQKFKGKATLTADKSSSTAYMHLSSLTSEDSAVYYCARKGGTPFAYWGQGTLLTVSAAKTTPPSVYPLAPGSAAQTNSMVTLGCLVKGYFPEPVTVTWNSGSLSSGVHTFPAVLESDLYTLSSSVTVPSSPRPSETVTCNVAHPASSTKVDKKIVPRDCGCKPCICTVPEVSSVFIFPPKPKDVLTITLTPKVTCVVVDISKDDPEVQFSWFVDDVEVHTAQTQPREEQFNSTFRSVSELPIMHQDWLNGKEFKCRVNSAAFPAPIEKTISKTKGRPKAPQVYTIPPPKEQMAKDKVSLTCMITDFFPEDITVEWQWNGQPAENYKNTQPIMNTNGSYFVYSKLNVQKSNWEAGNTFTCSVLHEGLHNHHTEKSLSHSPG
light: DVVMTQTPLSLPVSLGDQASISCRSSQSLVHSNGNTYLYWYLQKPGQSPKLLIYKVSNRFSGVPDRFSGSGSGTDFTLKISRVEAEDLGVYFCSQSTHVPYTFGGGTKLEIKRADAAPTVSIFPPSSEQLTSGGASVVCFLNNFYPKDINVKWKIDGSERQNGVLNSWTDQDSKDSTYSMSSTLTLTKDEYERHNSYTCEATHKTSTSPIVKSFNRNEC
B8: 1-K16 (mouse hybridoma antibody) (antibody, mouse IgG1, kappa)
heavy: EVQLVETGGGLVQPKGSLKLSCAASGFTFNINAMNWVRQAPGKGLEWVARIRSKSNNYATYYADSVKDRFTISRDDSQSMLYLQMNNLKTEDTAMYYCVRGGYGSSPYDMDYWGQGTSVTVSSAKTTPPSVYPLAPGSAAQTNSMVTLGCLVKGYFPEPVTVTWNSGSLSSGVHTFPAVLESDLYTLSSSVTVPSSPRPSETVTCNVAHPASSTKVDKKIVPRDCGCKPCICTVPEVSSVFIFPPKPKDVLTITLTPKVTCVVVDISKDDPEVQFSWFVDDVEVHTAQTQPREEQFNSTFRSVSELPIMHQDWLNGKEFKCRVNSAAFPAPIEKTISKTKGRPKAPQVYTIPPPKEQMAKDKVSLTCMITDFFPEDITVEWQWNGQPAENYKNTQPIMNTNGSYFVYSKLNVQKSNWEAGNTFTCSVLHEGLHNHHTEKSLSHSPG
light: DIVMTQAAPSVPVTPGESVSISCRSSKSLLHSNGNTYLYWFLQRPGQSPQLLIYRMSNLASGVPDRFSGSGSGTAFTLRISRVEAEDVGVYYCMQHLEYPFTFGAGTKLELKRADAAPTVSIFPPSSEQLTSGGASVVCFLNNFYPKDINVKWKIDGSERQNGVLNSWTDQDSKDSTYSMSSTLTLTKDEYERHNSYTCEATHKTSTSPIVKSFNRNEC
B9: 19-O07 (mouse hybridoma antibody) (antibody, human IgG1)
heavy: EVQLQQSVAELVRPGASVKLSCTASGFNIKNTQMHWVKQRPEQGLEWIGRIDPANGNTKYAPKFQGKATITGDTSSNTAYLQLSSLTSEDTAIYYCARFDYYYGSGDYAMDYWGQGTSVTVSSTTTAPSVYPLVPGCSDTSGSSVTLGCLVKGYFPEPVTVKWNYGALSSGVRTVSSVLQSGFYSLSSLVTVPSSTWPSQTVICNVAHPASKTELIKRIEPRIPKPSTPPGSSCPPGNILGGPSVFIFPPKPKDALMISLTPKVTCVVVDVSEDDPDVHVSWFVDNKEVHTAWTQPREAQYNSTFRVVSALPIQHQDWMRGKEFKCKVNNKALPAPIERTISKPKGRAQTPQVYTIPPPREQMSKKKVSLTCLVTNFFSEAISVEWERNGELEQDYKNTPPILDSDGTYFLYSKLTVDTDSWLQGEIFTCSVVHEALHNHHTQKNLSRSP
light: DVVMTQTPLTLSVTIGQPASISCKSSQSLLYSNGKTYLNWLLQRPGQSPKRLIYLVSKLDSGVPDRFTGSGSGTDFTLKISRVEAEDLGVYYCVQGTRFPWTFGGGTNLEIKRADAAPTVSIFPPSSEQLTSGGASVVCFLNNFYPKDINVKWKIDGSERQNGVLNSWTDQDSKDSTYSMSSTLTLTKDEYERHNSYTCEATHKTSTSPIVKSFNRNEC
notes: also called 19-007
B10: 6-B09 (mouse hybridoma antibody) (antibody, mouse IgG2a, kappa)
heavy: QVQLKESGPGLVAPSQSLSITCTVSGFSLARYDISWIRQPPGKGLEWLGVIWTGGGTNYNSAFMSRLSISKDNSKSQVFLKMNGLQTDDTAIYYCVSIRYDETYWGQGTLVTVSAAKTTAPSVYPLAPVCGDTTGSSVTLGCLVKGYFPEPVTLTWNSGSLSSGVHTFPAVLQSDLYTLSSSVTVTSSTWPSQSITCNVAHPASSTKVDKKIEPRGPTIKPCPPCKCPAPNLLGGPSVFIFPPKIKDVLMISLSPIVTCVVVDVSEDDPDVQISWFVNNVEVHTAQTQTHREDYNSTLRVVSALPIQHQDWMSGKEFKCKVNNKDLPAPIERTISKPKGSVRAPQVYVLPPPEEEMTKKQVTLTCMVTDFMPEDIYVEWTNNGKTELNYKNTEPVLDSDGSYFMYSKLRVEKKNWVERNSYSCSVVHEGLHNHHTTKSFSRTPG
light: QIVLTQSPAIMSASPGEKVTITCSASSSVIYMHWFQQKPGTSPKLWIYATSNLASGVPARFSGSGSGTSYSLTISRMEAEDAATYYCQQRSSYPLTFGAGTKLELKRADAAPTVSIFPPSSEQLTSGGASVVCFLNNFYPKDINVKWKIDGSERQNGVLNSWTDQDSKDSTYSMSSTLTLTKDEYERHNSYTCEATHKTSTSPIVKSFNRNEC
B11: 13-E16 (mouse hybridoma antibody) (antibody, mouse IgG2a, kappa)
heavy: EVQLVETGGGLVQPKGSLKLSCAASGFTFSTNAMNWVRQAPGKGLEWIARIRSKSNNYATHYADSVKDRFTISRDDSQSILHLQMNNLKNEDTAMYYCVRDSHYYVSTYVGLAWFAYWGQGTLVTVSAAKTTAPSVYPLAPVCGDTTGSSVTLGCLVKGYFPEPVTLTWNSGSLSSGVHTFPAVLQSDLYTLSSSVTVTSSTWPSQSITCNVAHPASSTKVDKKIEPRGPTIKPCPPCKCPAPNLLGGPSVFIFPPKIKDVLMISLSPIVTCVVVDVSEDDPDVQISWFVNNVEVHTAQTQTHREDYNSTLRVVSALPIQHQDWMSGKEFKCKVNNKDLPAPIERTISKPKGSVRAPQVYVLPPPEEEMTKKQVTLTCMVTDFMPEDIYVEWTNNGKTELNYKNTEPVLDSDGSYFMYSKLRVEKKNWVERNSYSCSVVHEGLHNHHTTKSFSRTPG
light: QIVLTQSPAIMSASPGEKVTITCSASSSVSYMHWFQQKPGTSPKLWIYSTSNLASGVPARFSGSGSGTSYFLTISRMEAEDAATYYCQQRSSYPYTFGGGTKLERKRADAAPTVSIFPPSSEQLTSGGASVVCFLNNFYPKDINVKWKIDGSERQNGVLNSWTDQDSKDSTYSMSSTLTLTKDEYERHNSYTCEATHKTSTSPIVKSFNRNEC

The first experiment has as its target CCR8-NT.MBP (CCR8 N-terminus peptide aa 1-35 fused with maltose binding protein). As to the kind of experiment: ForteBio Octet, antibody captured on AHC biosensors, CCR8-NT.MBP as analyte.
For the molecule B1, the “Octet Response (nm)” value turned out to be 0.299 nm. Still for that read-out and setting: the result for B2 reads 0.431 nm.

Take B3: the “Octet Response (nm)” value was determined as 0.376 nm. Same read-out and setting: for B4 the value was 0.404 nm. The same measure, in the same setting: for B5 the value was 0.205 nm; for B6, 0.357 nm.

In another experiment the target is T1, Human CCR4 expressed on CHO-S cells (human, UniProt P51679 1-360).
T1 construct: whole, on cells; also called CCR4-expressing CHO-S cells
T1 sequence (looked up): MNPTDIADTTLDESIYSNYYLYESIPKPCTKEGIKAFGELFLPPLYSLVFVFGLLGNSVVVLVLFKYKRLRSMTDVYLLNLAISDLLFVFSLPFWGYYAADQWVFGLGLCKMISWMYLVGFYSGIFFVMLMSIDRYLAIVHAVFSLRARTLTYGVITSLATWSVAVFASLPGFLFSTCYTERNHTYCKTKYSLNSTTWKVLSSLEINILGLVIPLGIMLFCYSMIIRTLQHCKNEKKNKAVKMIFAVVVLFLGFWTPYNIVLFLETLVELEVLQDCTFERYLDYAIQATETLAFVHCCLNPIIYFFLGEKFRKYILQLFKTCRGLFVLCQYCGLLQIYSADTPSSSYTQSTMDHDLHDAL
As to the kind of experiment: flow cytometry (PE-A), human CCR4-expressing CHO-S cells against parental CHO-S cells; antibody concentration not given. A general note: A flow cytometer gives signals particle by particle.
As for B7, the binding result is reported as “no binding”. Regarding B8, the binding result is “no binding”.

Consider B9, for which the binding result is “no binding”. B10: the binding result is reported as “no binding”. The same measure, in the same setting: the result for B11 reads “no binding”.

Values taken from patent US20260116987A1 (Gilead, published 2026).
